Substrate in this series: CC(=O)SCCNC(=O)CCNC(=O)[C@H](O)C(C)(C)COP(=O)(O)OP(=O)(O)OC[C@H]1O[C@@H](n2cnc3c(N)ncnc32)[C@H](O)[C@@H]1OP(=O)(O)O
In words: DTNB colorimetric assay of CoA release. Particulars: 2000 μM GlcN6P fixed, 25 mM Tris-HCl, 150 mM NaCl, pH 7.2, room temperature. The format is biochemical, Cryptosporidium parvum. An excerpt: DTNB colorimetric assay of CoA release on CpGNA1

The Km is the substrate concentration at which the rate is half of its maximum.

B1: CpGNA1 (Cryptosporidium parvum Iowa II) (protein)
chain: MISSFEVRKATIDDYFELRNLICDVTRCTETLSREQAEERFRYNTYHPYCLVDTENGRIVGYAGFYIIPHLGRKNDSRIEHVIISKEYRNRGLGRLLCKQIIEDAKNKFNCGRIDLTVESHIAKKLYSSLEFEKVNTEVMRNSFLDLTPKSD
notes: N-terminal GST tag kept (not cleaved), pGEX-6P-1, codon-optimized
With B1, the Michaelis constant (Km) amounted to 531 ± 80.33 µM.

The values above are taken from PMC7587441, “Plasmodium falciparum Apicomplexan-Specific Glucosamine-6-Phosphate N-Acetyltransferase Is Key for Amino Sugar Metabolism and Asexual Blood Stage Development” (mBio, 2020).
